IntAct's records for PubMed 21376235

B1: RNA polymerase II-associated protein 1 (Saccharomyces cerevisiae), P38351 (parent)
chain: MSKKQEYIAPIKYQNSLPVPQLPPKLLVYPESPETNADSSQLINSLYIKTNVTNLIQQDEDLGMPVDLMKFPGLLNKLDSKLLYGFDNVKLDKDDRILLRDPRIDRLTKTDISKVTFLRRTEYVSNTIAAHDNTSLKRKRRLDDGDSDDENLDVNHIISRVEGTFNKTDKWQHPVKKGVKMVKKWDLLPDTASMDQVYFILKFMGSASLDTKEKKSLNTGIFRPVELEEDEWISMYATDHKDSAILENELEKGMDEMDDDSHEGKIYKFKRIRDYDMKQVAEKPMTELAIRLNDKDGIAYYKPLRSKIELRRRRVNDIIKPLVKEHDIDQLNVTLRNPSTKEANIRDKLRMKFDPINFATVDEEDDEDEEQPEDVKKESEGDSKTEGSEQEGENEKDEEIKQEKENEQDEENKQDENRAADTPETSDAVHTEQKPEEEKETLQEE
partner: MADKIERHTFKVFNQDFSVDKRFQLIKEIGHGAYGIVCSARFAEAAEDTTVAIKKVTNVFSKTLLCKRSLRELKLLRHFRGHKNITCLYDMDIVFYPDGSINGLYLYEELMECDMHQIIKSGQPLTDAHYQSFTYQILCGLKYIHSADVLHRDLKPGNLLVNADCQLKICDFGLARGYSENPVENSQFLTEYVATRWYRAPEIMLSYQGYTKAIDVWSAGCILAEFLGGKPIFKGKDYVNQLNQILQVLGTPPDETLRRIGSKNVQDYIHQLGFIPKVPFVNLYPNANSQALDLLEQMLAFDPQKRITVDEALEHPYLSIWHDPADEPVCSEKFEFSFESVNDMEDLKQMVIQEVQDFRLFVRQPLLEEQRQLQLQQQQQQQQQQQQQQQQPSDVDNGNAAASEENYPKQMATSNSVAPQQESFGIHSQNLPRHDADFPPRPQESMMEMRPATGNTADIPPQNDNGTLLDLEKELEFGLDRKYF

Variants of: B1
Details: with slt2_yeast SLT2, Q00772

| Variant | effect of a mutation on the interaction |
| --- | --- |
| MSKKQEYIAPIKYQNSLPVPQLPPKLLVYPESPETNADSSQLINSLYIKTNVTNLIQQDEDLGMPVDLMKFPGLLNKLDSKLLYGFDNVKLDKDDRILLRDPRIDRLTKTDISKVTFLRRTEYVSNTIAAHDNTSLKRKRRLDDGDSDDENLDVNHIISRVEGTFNKTDKWQHPVKKGVKMVKKWDLLPDAAFMDQVYFILKFMGSASLDTKEKKSLNTGIFRPVELEEDEWISMYATDHKDSAILENELEKGMDEMDDDSHEGKIYKFKRIRDYDMKQVAEKPMTELAIRLNDKDGIAYYKPLRSKIELRRRRVNDIIKPLVKEHDIDQLNVTLRNPSTKEANIRDKLRMKFDPINFATVDEEDDEDEEQPEDVKKESEGDSKTEGSEQEGENEKDEEIKQEKENEQDEENKQDENRAADTPETSDAVHTEQKPEEEKETLQEE [T191A;S193F] | decreasing interaction |
